{"source": "patent US20130071428A1", "key": {"[1]": {"target": "J Z Z SKFIGITELKKLESKINKVF (Clostridium tetani)"}, "[2]": {"target": "J Z Z F I G I T E L K K L E S K I N K V F (Clostridium tetani)"}, "[3]": {"target": "J Z F I G I T E L K K L E S K I N K V F (Clostridium tetani)"}, "[4]": {"target": "J Z SKFIGITELKKLESKINKVF (Clostridium tetani)"}, "[5]": {"target": "… (18-mer) with Ahx-Lys(biotin) (Clostridium tetani)", "experiment": "Tettox ELISA, biotinylated peptide on streptavidin plate"}, "[6]": {"target": "… (18-mer) with Ahx-Lys(biotin) (Clostridium tetani)"}, "[7]": {"target": "b1, neg contr. (Clostridium tetani)", "experiment": "Tettox ELISA, negative control peptide; antibody source not named in Table 4"}}, "data": [{"substance": "TetaQuin® (antibody)", "values": [{"measurement": "OD (column without a head)", "setting": "[1]", "value": 0.47, "unit": "OD"}, {"measurement": "OD (column without a head)", "setting": "[2]", "value": 0.22, "unit": "OD"}, {"measurement": "OD (column without a head)", "setting": "[3]", "value": 0.17, "unit": "OD"}, {"measurement": "OD (column without a head)", "setting": "[4]", "value": 0.28, "unit": "OD"}, {"measurement": "OD", "setting": "[5]", "value": 2.3, "unit": "OD"}, {"measurement": "ELISA OD", "setting": "Ala scan of …, # 13", "value": 1.27, "unit": "OD"}, {"measurement": "ELISA OD", "setting": "Ala scan of …, # 2", "value": 1.12, "unit": "OD"}, {"measurement": "ELISA OD", "setting": "Ala scan of …, # 19", "value": 1.26, "unit": "OD"}, {"measurement": "ELISA OD", "setting": "Ala scan of …, # 10", "value": 1.06, "unit": "OD"}, {"measurement": "ELISA OD", "setting": "Ala scan of …, # 5", "value": 0.3, "unit": "OD"}, {"measurement": "ELISA OD", "setting": "Ala scan of …, # 3", "value": 1.04, "unit": "OD"}, {"measurement": "ELISA OD", "setting": "Ala scan of …, # 8", "value": 0.9, "unit": "OD"}, {"measurement": "ELISA OD", "setting": "Ala scan of …, # 16", "value": 1.37, "unit": "OD"}, {"measurement": "ELISA OD", "setting": "Ala scan of …, # 17", "value": 1.3, "unit": "OD"}, {"measurement": "ELISA OD", "setting": "Ala scan of …, # 14", "value": 1.1, "unit": "OD"}, {"measurement": "ELISA OD", "setting": "Ala scan of …, # 9", "value": 0.62, "unit": "OD"}, {"measurement": "ELISA OD", "setting": "Ala scan of …, # 7", "value": 1.24, "unit": "OD"}, {"measurement": "ELISA OD", "setting": "Ala scan of …, # 6", "value": 0.38, "unit": "OD"}, {"measurement": "ELISA OD", "setting": "Ala scan of …, # 18", "value": 1.24, "unit": "OD"}, {"measurement": "ELISA OD", "setting": "Ala scan of …, # 11", "value": 0.7, "unit": "OD"}, {"measurement": "ELISA OD", "setting": "Ala scan of …, # 12", "value": 0.85, "unit": "OD"}, {"measurement": "ELISA OD", "setting": "[6]", "value": 1.26, "unit": "OD"}, {"measurement": "ELISA OD", "setting": "Ala scan of …, # 4", "value": 0.65, "unit": "OD"}, {"measurement": "ELISA OD", "setting": "Ala scan of …, # 15", "value": 0.88, "unit": "OD"}, {"measurement": "OD (column without a head)", "setting": "[7]", "value": 0.12, "unit": "OD"}]}]}
